The target of assay [1] is T1, CD276 protein on tumor target cells (NCI-H292, SK-OV-3) (human, UniProt Q5ZPR3 29-534).
T1 construct: whole, on cells; for SK-OV-3 it is implied by the use of CD276-targeted BiTE and CAR; also called B7-H3; CD276-expressing target cells
T1 sequence (looked up): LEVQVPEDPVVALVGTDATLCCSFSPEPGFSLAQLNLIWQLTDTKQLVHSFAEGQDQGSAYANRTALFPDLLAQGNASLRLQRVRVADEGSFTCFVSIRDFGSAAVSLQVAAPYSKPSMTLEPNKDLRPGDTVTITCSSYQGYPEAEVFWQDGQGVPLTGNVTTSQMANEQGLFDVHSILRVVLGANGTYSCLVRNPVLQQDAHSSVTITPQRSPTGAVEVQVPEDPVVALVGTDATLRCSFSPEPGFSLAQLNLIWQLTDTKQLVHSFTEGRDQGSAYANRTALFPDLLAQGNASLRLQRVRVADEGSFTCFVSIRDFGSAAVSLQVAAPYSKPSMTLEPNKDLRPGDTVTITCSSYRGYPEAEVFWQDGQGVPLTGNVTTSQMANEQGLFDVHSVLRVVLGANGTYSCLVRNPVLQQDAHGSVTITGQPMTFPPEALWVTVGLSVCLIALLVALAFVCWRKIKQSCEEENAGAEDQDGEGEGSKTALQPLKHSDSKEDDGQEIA
The assay is described as follows: flow cytometry on NCI-H292 cells, IgG-Fc-PE second antibody.

In assay [2] the target is T1, CD276 protein on tumor target cells …. The assay is described as follows: flow cytometry on NCI-H292 cell line (Fig. 3).
Assay [3] shares this target. The assay is described as follows: cell-based or functional assay.

These results are taken from patent EP4703386A1 (Shanghai Sinobay Biotechnology Co., Ltd., dated 2026).

B1: Hu012-13 (antibody, IgG1, V domains shown)
VH: EVQLVQSGAEVKKPGASVKVSCKASGYTFTSYGISWVRQAPGQGLEWMGWISAYNGNTNYAQKLQGRVTMTTDTSTSTAYMELRSLRSDDTAVYYCARAPYYGGYDYWGQGTMVTVSS
VL: ETTLTQSPGTLSLSPGDRATLSCRASQSVRSSYLAWYQQKPGQAPRLVIYGASNRAAGIPDRFSGSGSGTDFTLTISGLEPEDFAVYYCQEYGYSLPNTFGQGTKLEIK
notes: Full-length IgG1 (AbVec-hIgG1, AbVec-hIgKappa); also called candidate antibody Hu012-13
B1: the binding result in assay [1] was “binds”.

B2: Hu012-6 (antibody, IgG1, V domains shown)
VH: QMQLVQSGGGLVQPGGSLRLSCAASGFTFSSYWMSWVRQAPGKGLEWVANIKQDGSEKYYVDSVKGRFTISRDNAKNSLYLQMNSLRAEDTAVYYCARSPHYDFWRRDYYYGMDVWGQGTLVTVSS
VL: QSVLTQPPSVSATPGQTVTISCSGSTSNIATNYVSWYQHLPGSAPKLLIYDNNKRPSGIPDRFSGSKSGTSATLDIIGLQTGDEADYYCGVWDPSLTTYVFGTGTQLTAL
notes: Full-length IgG1 (AbVec-hIgG1, AbVec-hIgKappa); also called candidate antibody Hu012-6
Take B2: the binding result in assay [2] is given as “binds”.

B3: Hu012-29 (antibody, V domains shown)
VH: EVQLVESGGGLVQPGGSLRLSCAASRNIFRFYTMGWYRQAPEKQRDLVARITSDGTTNYADSVKGRFTISRDNAKNTVYLQMNSLKPEDTAVYYCNTDLPLNTYWAQGTLVTVSS
VL: DIQMTQSPSSLSASVGDRVTITCRASQSISSSLNWYQHKPGKAPKLLIYSASILQSGVPSRFSGSGSGTDYTLTISSLQPEDFATYSCQQSYTTPYTFGLGTKLEIK
notes: Full-length IgG1 (AbVec-hIgG1, AbVec-hIgKappa); also called candidate antibody Hu012-29
In the case of B3, in assay [1], the binding result is recorded as “binds”.

B4: Hu012-14 (antibody, IgG1, V domains shown)
VH: EVQLVETGGGLVQPGGSLRLSCAASGFTFSSYGMTWVRQPPGKGLEWVSHISGSGTNTYYADSVKGRFTISRDNSKNTLYLQMNNLGAEDTAVYYCAKLKWGHSGYGDYWGQGTTVTVSS
VL: EIVLTQSPATLSLSPGERATLSCRASQTISRYLAWYQQKPGQAPRLLIYDASNRATGIPARFSGSGSDTDFTLTISSIEPEDFAVYYCQERSNWPQVTFGPGTKLEIK
notes: Full-length IgG1 (AbVec-hIgG1, AbVec-hIgKappa); also called candidate antibody Hu012-14
B4: in assay [1], the binding result is recorded as “binds”.

B5: Hu012-27 (antibody, IgG1, V domains shown)
VH: QVQLVQSGGGVVQPGRSLRLSCAASGFTFSSYAMHWVRQAPGKGLEWVAVISYDGSNKYYADSVKGRFTISRDNSKNTLYLQMNSLRAEDTTVYYCARDRRYYSSMDVWGQGTTVTVSS
VL: QTVVTQEPSFSVSPGGTITLTCGLSSGSVSTSYYPSWYQQTPGQAPRTLIYNTNTRSSGVPDRFSGSILGNKAALTITGAQADDESHYYCALHMDSGSWVFGGGTQLTVL
notes: Full-length IgG1 (AbVec-hIgG1, AbVec-hIgKappa); also called candidate antibody Hu012-27
Turning to B5, in assay [1], the binding result is “binds”.

B6: Hu012-24 (antibody, IgG1, V domains shown)
VH: EVQLVQSGGGLVKPGGSLRLSCAASGFTFSRHSMNWVRQAPGKGLEWVSSISSNDEHIIYADSVKGRFTISRDNSKNTLYLEMNSLRAEDTAVYYCARASRYGGSYYGLDYWGQGTLVTVSS
VL: QTVVTQEPSFSVSPGGTVTLTCGLTSGSVSTTYFPSWYQQTPGQPPRRLIYNTNTRSSGVPDRFSGSIVGIKAALTITGAQAEDESDYYCALYLGSGIVEFGGGTKLTVL
notes: Full-length IgG1 (AbVec-hIgG1, AbVec-hIgKappa); also called candidate antibody Hu012-24
Molecule B6 gave a positive rate in assay [1] of approximately 100%.

B7: Hu012-21 (antibody, IgG1, V domains shown)
VH: EVQLVQSGGGVVQPGRSLRLSCAASGFTFSSYGMHWVRQAPGKGLEWVAVISYDGSNKYYADSVKGRFTISRDNSKDTLYLQMNSLRAEDTAVYYCAKDKLMGWHNYGMDVWGQGTTVTVSS
VL: AIQLTQSPSSLSASVGDRVTITCRASQSINSYLNWYQQKPGKAPKVLIYAASNLQSGVPSRFSGSGSGTDFTLTISSLQPEDFATYYCQQSYSTPPTFGQGTKLEIK
notes: Full-length IgG1 (AbVec-hIgG1, AbVec-hIgKappa); also called candidate antibody Hu012-21
For B7, the binding result in assay [1] is on record as “binds”.

B8: Hu012-3 (antibody, IgG1, V domains shown)
VH: QVQLVQSGAEVKKPGESLRISCKGSGYSFTSYWISWVRQMPGKGLEWMGRIDPSDSYTNYSPSFQGHVTISADKSISTAYLQWSSLKASDTAMYYCARHDASGGGPSDYWGQGTLVTVSS
VL: QSVLTQPPSVSAAPGQRVTISCSGSSSNIGDHYVSWYQQLPGTAPKLLIYDNNKRPSGIPDRFSGSKSGTSATLGITGLQTGDEADYYCGTWDSSLSVPNWVFGGGTKVTVL
notes: Full-length IgG1 (AbVec-hIgG1, AbVec-hIgKappa); also called candidate antibody Hu012-3
B8: the binding result in assay [2] was “binds”.

B9: Hu012-8 (antibody, IgG1, V domains shown)
VH: QVQLVQSGAEVKKPGASVRVSCKGSGYTFTDHHMYWVRQAPGQGLEWMGRINPNTGVTNYAQKFQGRVSMTRDTSINTVYLELRSLKSDDAAVYYCGRDQVVMVPGVPLDLGMDVWGQGTTVTVSS
VL: NIQMTQSPSSLSASVGDRVTITCRASQTISRYLNWYQQKPGKAPKLLIYAASSLQSGVPSRFSGSGSGADFTLTINTLQPEDFATYYCQQSYRTPQTFGQGTKVEIK
notes: Full-length IgG1; also called candidate antibody Hu012-8
In turn, B9 had a positive rate in assay [1] of approximately 100%.

B10: Hu012-1 (antibody, V domains shown)
VH: QVTLKESGGGLVQPGGSLRLSCAASGSIFNMYAMGWYRQAPGKQRELVASITSGGSTHYADSVKGRFTISRDNAKNTMYLQMNSLKPEDTAVYYCRQNDGMDYWGKGTLVTVSS
VL: QAGLTQPPSVSVAPGKTARITCGGNNIGSKSVHWYQQKPGQAPVVVIYDDSDRPSGIPERFSGSNSGNTATLTISRVEAGDEADFYCQVWDSSSDRYVFGTGTKLTVL
notes: Full-length IgG1 (AbVec-hIgG1, GenBank FJ475055.1; AbVec-hIgKappa, GenBank FJ475056.1); also called candidate antibody Hu012-1
Regarding B10, in assay [1], the positive rate was approximately 100%.

B11: Hu012-7-4-1BB-CD3ζ chimeric antigen receptor on lentivirus-transduced T cells (other)
chain: GDYKDDDDKGSEVQLVESGGGVVQPGRSLTLSCAASGFTFNGYSMHWVRQAPGKGLEWVAVMSSDGGNKYYADSVKGRFTISRDNSKNTLYLQMNGLRPEDTAVYYCARAVSSGWSLPFDFWGHGTLVTVSSGGGGSGGGGSGGGGSDIVMTQSPSSLSTSIGDRVTITCRASQGISNFLAWFQQKPGKAPKSLIYAASRLQSGVPSKFSGSGSGTNFTLTISSLQPEDFATYYCQQYDSYPLTFGGGTKVEIKTRTTTPAPRPPTPAPTIASQPLSLRPEACRPAAGGAVHTRGLDFACDIYIWAPLAGTCGVLLLSLVITLYCKRGRKKLLYIFKQPFMRPVQTTQEEDGCSCRFPEEEEGGCELRVKFSRSADAPAYKQGQNQLYNELNLGRREEYDVLDKRRGRDPEMGGKPRRKNPQEGLYNELQKDKMAEAYSEIGMKGERRRGKGHDGLYQGLSTATKDTYDALHMQALPPR
B11: in assay [3], the “killing efficiency on SKOV3 cells, effector to target ratio 1:1” value was approximately 30% and the “killing efficiency on SKOV3 cells, effector to target ratio 2:1” value was more than 60%.

B12: CD276(Hu012-7)BiTE (bispecific antibody)
chain: DIVMTQSPSSLSTSIGDRVTITCRASQGISNFLAWFQQKPGKAPKSLIYAASRLQSGVPSKFSGSGSGTNFTLTISSLQPEDFATYYCQQYDSYPLTFGGGTKVEIKGGGGSGGGGSGGGGSEVQLVESGGGVVQPGRSLTLSCAASGFTFNGYSMHWVRQAPGKGLEWVAVMSSDGGNKYYADSVKGRFTISRDNSKNTLYLQMNGLRPEDTAVYYCARAVSSGWSLPFDFWGHGTLVTVSSGGGGSQVQLVQSGAEVKKPGASVKVSCKASGYTFTRYTMHWVRQAPGQGLEWMGYINPSRGYTNYNQKFKDRVTITADKSTSTAYMELSSLRSEDTAVYYCARYYDDHYCLDYWGQGTTVTVSSGGGGSGGGGSGGGGSGSEIVLTQSPATLSLSPGERATLSCSASSSVSYMNWYQQKPGKAPKRLIYDTSKLASGVPSRFSGSGSGTDFTLTINSLEAEDAATYYCQQWSSNPFTFGQGTKVEIKR
As for B12, in assay [3], the “fold increase in killing the NCI-H292 tumor cell line against control BiTE” value is 1.2 fold and the “fold increase in killing the SK-OV3 tumor cell line against control BiTE” value came to 2.1 fold.

B13: CD276(Hu012-8)BiTE (bispecific antibody)
chain: NIQMTQSPSSLSASVGDRVTITCRASQTISRYLNWYQQKPGKAPKLLIYAASSLQSGVPSRFSGSGSGADFTLTINTLQPEDFATYYCQQSYRTPQTFGQGTKVEIKGGGGSGGGGSGGGGSQVQLVQSGAEVKKPGASVRVSCKGSGYTFTDHHMYWVRQAPGQGLEWMGRINPNTGVTNYAQKFQGRVSMTRDTSINTVYLELRSLKSDDAAVYYCGRDQVVMVPGVPLDLGMDVWGQGTTVTVSSGGGGSQVQLVQSGAEVKKPGASVKVSCKASGYTFTRYTMHWVRQAPGQGLEWMGYINPSRGYTNYNQKFKDRVTITADKSTSTAYMELSSLRSEDTAVYYCARYYDDHYCLDYWGQGTTVTVSSGGGGSGGGGSGGGGSGSEIVLTQSPATLSLSPGERATLSCSASSSVSYMNWYQQKPGKAPKRLIYDTSKLASGVPSRFSGSGSGTDFTLTINSLEAEDAATYYCQQWSSNPFTFGQGTKVEIKR
Regarding B13, in assay [3], the “fold increase in killing the NCI-H292 tumor cell line against control BiTE” value came out at 1.2 fold and the “fold increase in killing the SK-OV3 tumor cell line against control BiTE” value turned out to be 2 fold.
